Measurements published in PMC11906491.

Molecular target: neonatal FcR (FcRn) (UniProt P55899)
Test: BLI + SPR

Sequence of UniProt P55899 (P55899 24-365): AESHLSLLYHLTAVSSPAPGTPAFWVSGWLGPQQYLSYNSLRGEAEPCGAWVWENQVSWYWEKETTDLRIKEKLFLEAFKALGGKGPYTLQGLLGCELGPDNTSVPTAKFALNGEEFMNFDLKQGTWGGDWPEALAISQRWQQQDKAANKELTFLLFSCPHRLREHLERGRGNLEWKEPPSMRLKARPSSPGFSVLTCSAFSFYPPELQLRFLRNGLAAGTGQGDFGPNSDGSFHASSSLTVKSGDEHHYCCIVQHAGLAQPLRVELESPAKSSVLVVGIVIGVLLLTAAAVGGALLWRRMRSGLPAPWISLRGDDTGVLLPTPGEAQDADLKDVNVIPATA

Row | Substance | Relative FcRn affinity (%)
1 | forced deamidation TCZ (antibody) | 100
2 | BAT1806/BIIB800 (antibody) | 104
3 | reference tocilizumab (antibody) | 96
